According to the supplement of paper PMC10567573:
± gives the standard deviation.

Experiment: protein stability index of a GFP-peptide fusion (GPS, HEK-293T) (PSI 1-6); higher = more stable
Details: c terminus: a fixed tail appended
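Further: 24-mer peptide tiles fused after GFP, lentivirally expressed, FACS-sorted into six equal bins by GFP/DsRed ratio, decoded by Illumina sequencing, PSI is the read-weighted mean bin number.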

Row | Sequence | protein stability index (treatment: DMSO) | protein stability index (treatment: MLN4924 1 uM, 8 h)
1 | MARLQEEHGDQLLSIRCQHQEQVE [MTUS2] | 4.85 ± 0.38 | 4.96 ± 0.11
2 | IIESFTELARIVLLRHRMNWLGRP [RAB40A] | 3.18 ± 0.72 | 2.79 ± 0.47
3 | CLLVLRLFLGIHVFLVSCALPDSV [AUP1] | 3.22 ± 0.2 | 3.09 ± 0.05
4 | RLLRDSEAFCHANCSGPAPAAKPD [P3H4] | 4.01 ± 0.35 | 4.01 ± 0.47
5 | LKGYPSLMRSQSPKAQPQTWKSGK [TRIM29] | 3.88 ± 0.36 | 3.93 ± 0.22
6 | MVIQLLAIMCVSCICWSPFLVTMA [PTGFR] | 3.11 ± 0.45 | 3.22 ± 0.36
7 | LEVINLLRKHRELCDVVLVVGAKK [KLHL20] | 2.37 ± 0.48 | 2.41 ± 0.34
8 | VVAMARKLQDVFEMRFAKMPDEPV [BRD3] | 2.49 ± 0.29 | 2.64 ± 0.35
9 | ALSRKKSQGLAREQHAGTSEGLHL [FBF1] | 4.26 ± 0.28 | 3.78 ± 0.42
10 | IAKYSDGASKAAGVFGFFATIVFA [CMTM3] | 2.86 ± 0.57 | 2.74 ± 0.41
11 | SGETWNPLKLHYQLRNVRERLAKN [GOLPH3] | 2.87 ± 0.54 | 3.03 ± 0.21
12 | PLLGVKGDGKSKKKQAGRPKGSKG [RBBP5] | 4.88 ± 0.15 | 4.88 ± 0.35
13 | QGENQEHLVIAEMMELGSRSRGAS [FATE1] | 4.73 ± 0.34 | 4.73 ± 0.12
14 | LGVQTGGPGGRRAGEPGHSPADYL [DYRK1B] | 4.34 ± 0.38 | 4.3 ± 0.31
15 | TDAPEQFISQVTVLKYFSHYMEEN [PLK2] | 2.09 ± 0.28 | 2.15 ± 0.23
16 | APGSSVEYQCQNLYQLEGNNQITC [CFHR2] | 3.88 ± 0.12 | 3.88 ± 0.17
17 | LGVFLDYEAGVLAFYDVTGGMSHL [TRIM14] | 2.83 ± 0.5 | 2.98 ± 0.82
18 | RYLVGEHQADLEVANRHGHTCLMI [FEM1A] | 2.19 ± 0.42 | 2.38 ± 0.24
19 | SDTTPLPSWAALNSSTWGSLKQAL [SNX8] | 2.7 ± 0.2 | 2.94 ± 0.12
20 | QLRNVRERLAKNLVEKGVLTTEKQ [GOLPH3] | 3.68 ± 0.34 | 3.84 ± 0.17
21 | TAYNKGRLQSSFWIVDKQHVYIGS [PLD5] | 2.49 ± 0.45 | 2 ± 0.27
22 | TLPPASRFIIIFEQIRFVMKAHSF [SOAT1] | 2.31 ± 0.48 | 2.57 ± 0.74
23 | VCLEYLKEPVIIECGHNFCKACIT [TRIM39] | 2.38 ± 0.55 | 2.28 ± 0.29

Row | Sequence | protein stability index (treatment: DMSO) | protein stability index (treatment: MLN4924 1 uM, 8 h)
24 | MYQELMEMCHKPDVELLQDLGDIV [TRIM43] | 2.57 ± 0.28 | 2.71 ± 0.45
25 | KIINTKKLSARDHQKLEREARICR [CAMK2B] | 3.45 ± 0.29 | 3.88 ± 0.24
26 | HVTHWMGQPFNSDDRNTACHHGLV [DLC1] | 2.51 ± 0.28 | 2.92 ± 0.31
27 | VVGDNAVGKTRLICARACNTTLTQ [RHOBTB1] | 2.69 ± 0.32 | 2.73 ± 0.38
28 | VNPWIIIGGVATVVCQPNEFIMPD [SEPHS2] | 2.67 ± 0.38 | 3.05 ± 0.81
29 | VEFVRHGDIIRLEHKETSRNLHSH [POMT2] | 3.02 ± 0.27 | 3.04 ± 0.25
30 | SWEPLSGPSTPSPVAAQFTSEGTT [FCHO1] | 4.61 ± 0.27 | 4.74 ± 0.22
31 | GDKLKFLSMLLTLKCEMNQMSGEP [ACSBG2] | 2.38 ± 1.1 | 2.56 ± 1
32 | DTTELSSAERYNPRTNQWSPVVAM [KLHL20] | 3.5 ± 0.17 | 3.7 ± 0.19
33 | ADRPFSAPWWFWLSLTGVSLAGAL [POMT2] | 2.93 ± 0.7 | 3 ± 0.48
34 | CLSRHSINPYSNRESRILFSTWNL [DFFB] | 2.28 ± 0.27 | 2.15 ± 0.3
35 | LTLVFFVQITGQPNILFYASTVLK [SLC2A12] | 3.19 ± 0.51 | 3.5 ± 0.59
36 | SGKELKIDIIPNPQERTLTLVDTG [HSP90AB1] | 3.98 ± 0.42 | 3.58 ± 0.48
37 | ERDRDPCGGSGGGGGGGGGGGGCS [LURAP1L] | 5.37 ± 0.35 | 5.4 ± 0.24
38 | GSLCSPWAAPRVGPLPPAPAMVRI [YPEL3] | 2.95 ± 0.15 | 3.07 ± 0.45
39 | GEENFEVVKQFVTGIIDSLTISPK [MATN2] | 3.18 ± 0.2 | 3.32 ± 0.46
40 | QGSRSGVSGGSRSLNMSRRDSEST [PHTF1] | 4.86 ± 0.4 | 4.9 ± 0.22
41 | PEPQVPGPAHGPAQEEPWEKKESL [ZNF232] | 5.55 ± 0.29 | 5.62 ± 0.2
42 | PHCSDLMPSGSEEKILRELSEEEE [KCNA4] | 5.64 ± 0.23 | 5.56 ± 0.24
43 | TNVKFLAITTDCLQILAYGNQESK [CTNNB1] | 2 ± 0.2 | 2.17 ± 0.16
44 | NFRVGKKIGCGNFGELRLGKNLYT [CSNK1G1] | 2.24 ± 0.4 | 2.11 ± 0.15
45 | FKLDKKYQRPQDSEDMWGDEDFTF [FBF1] | 4.12 ± 0.18 | 4.14 ± 0.23
46 | EGGIFTSPNYPSKYPPDRECIYII [NETO1] | 2.76 ± 0.94 | 2.95 ± 0.7

Row | Sequence | protein stability index (treatment: DMSO) | protein stability index (treatment: MLN4924 1 uM, 8 h)
47 | HGLPFLPGTSFKDSTKTAFHRSQT [EFHC1] | 3.53 ± 0.15 | 3.63 ± 0.087
48 | GSSPKSKTKWTKEDGHRTSTSAVP [ADD1] | 4.96 ± 0.17 | 4.81 ± 0.25
49 | DPGLWSRLCRLAGASSPAAYDEAL [ZSWIM9] | 2.82 ± 0.15 | 2.78 ± 0.24
50 | KEAKEFLVQLRNMVQQIQENSVEF [TRIM9] | 2.29 ± 0.31 | 2.41 ± 0.23
51 | AGMGKVTSASFGEESTPGQTNSET [HDAC6] | 5.3 ± 0.29 | 5.25 ± 0.1
52 | ALLSCCLTVVSFYQVAALQGDLAS [TNFSF13B] | 3.57 ± 0.21 | 3.2 ± 0.26
53 | LQSSKNSYSFQNPSSFDPSMLLQR [RNF180] | 2.9 ± 0.27 | 3.3 ± 0.17
54 | SNSLAIAILMKAYQRFRQKSKASF [PTGFR] | 2.1 ± 0.25 | 2.23 ± 0.19
55 | ARVLDRRGCSRVEGGGTSLHVACE [ANKRD9] | 3.57 ± 0.27 | 3.47 ± 0.46
56 | MSLVLHGNNLLVFGGTGIPFGESN [KLHDC10] | 2.74 ± 0.69 | 2.81 ± 0.52
57 | ITNQVVAQVDGAAMFAADPKKPIG [RAD51] | 4.58 ± 0.11 | 4.51 ± 0.2
58 | MQVFAKLGTDPTHVMGLYPDLLPT [VPS39] | 2.16 ± 0.27 | 2.35 ± 0.25
59 | PEGQELQKLGSGAWDNPAYSGPPS [PKD2L1] | 4.53 ± 0.35 | 4.93 ± 0.36
60 | MCQRLRSMQYNGSYFDRGAKGGSR [DFFB] | 3.26 ± 0.26 | 3.48 ± 0.42
61 | TSFEPEALGNLVEGMDFHRFYFEN [CAMK2B] | 3.14 ± 0.27 | 3.18 ± 0.26
62 | LEDGFYLTAFICFLVFILNAGLVW [MFSD9] | 3.23 ± 0.84 | 2.73 ± 0.95
63 | HHAALNGHVEMVNLLLAKGANINA [ANKRD44] | 2.51 ± 0.4 | 2.89 ± 0.2
64 | MMKAKGDLEMKEEEEISETGELVG [ZBED2] | 5.59 ± 0.27 | 5.35 ± 0.26
65 | LLCLLHFSIVSVAAHLALLLLCGT [RTN2] | 3.19 ± 0.65 | 3.33 ± 0.3
66 | SSTTGLFYSAEIICAIEYLHSKEI [PRKX] | 3.13 ± 0.61 | 3.33 ± 1
67 | LSSVECLDYTADEDGVWYSVAPMN [KLHL12] | 3.59 ± 0.19 | 3.74 ± 0.48
68 | RDNDHPDHSSRELSKILAKLERLK [FUT8] | 2.39 ± 0.25 | 2.27 ± 0.24
69 | VLPPIHAYGNRTECRNPQELESIR [FEM1B] | 4.14 ± 0.28 | 4 ± 0.21

Row | Sequence | protein stability index (treatment: DMSO) | protein stability index (treatment: MLN4924 1 uM, 8 h)
70 | QRRSRQNPQSPPQDSSVTSKRNIK [HDAC6] | 5.26 ± 0.51 | 5.27 ± 0.31
71 | EDPDYYGQEIWSREPYYARPEPEL [CPXM2] | 4.38 ± 0.11 | –
72 | EASQLRRLNIKKDDEFFHFVLLCF [TMEM40] | 2.15 ± 0.25 | 2.22 ± 0.26
73 | TPLEPDAKDLPCDSKPESALGAPS [TBX5] | 5.41 ± 0.29 | 5.36 ± 0.23
74 | KLSGFMSKLVPAIQNAHKNSTGSG [TPRG1] | 2.72 ± 0.2 | 3.03 ± 0.23
75 | ILGGSGPVRKLYDDCSSTIVEDPQ [ESRRG] | 4.37 ± 0.3 | 4.41 ± 0.3
76 | LLPIVPLSWLVWLLLLLLASLLPS [ADAMTS4] | 3.04 ± 0.33 | 3.17 ± 0.51
77 | KGLEDTKSPQFNRYFYLLENIAWV [PDS5B] | 2.44 ± 0.89 | 2.31 ± 0.37
78 | GAGLPQFQSISLRKIQFNFPYFRS [CLCN6] | 2.13 ± 0.26 | 2.21 ± 0.41
79 | PVCPTVCPPGGIHQVTVNESLLAP [KRT71] | 4.36 ± 0.082 | 4.16 ± 0.21
80 | FDPLRNEYFFDRNRPSFDAILYYY [KCNA1] | 2.68 ± 0.45 | 2.73 ± 0.48
81 | KTEAEIAHIALETLEGHQRAIMAH [FLOT1] | 4.1 ± 0.12 | 4.06 ± 0.3
82 | DAHLVLDGEEIPVQKNILAAASPY [GAN] | 4.18 ± 0.12 | 4.16 ± 0.3
83 | HFERRDNMNDNFLEGEEENELTLN [CHGB] | 5.53 ± 0.06 | 5.61 ± 0.21
84 | PFILPDMVGGNAVPQRTAGGDVPE [MYORG] | 4.96 ± 0.24 | 5.09 ± 0.2
85 | LEIPVETITSEVIEKCTTPLSDDH [CRY1] | 4.8 ± 0.23 | 5.02 ± 0.3
86 | NYCSAYESFYESTSPECASPQFEG [NEUROD6] | 3.54 ± 0.22 | 3.67 ± 0.16
87 | VKEGGSYGFSLKTVQGKKGVYMTD [PDZK1] | 3.39 ± 0.41 | 3.08 ± 0.53
88 | WLMTYVGAVFNGITLLILAELLIF [RTN3] | 2.49 ± 0.28 | –
89 | QLQDQDQKLLEQTQIIGEQNARLA [FBXO28] | 4.75 ± 0.18 | 4.74 ± 0.15
90 | PAQSGILSDREVVNLFLHFTVNPK [BTBD1] | 1.84 ± 0.24 | 2.53 ± 0.23
